Data: paper PMC6479836, “Interaction of Nerve Growth Factor β with Adiponectin and SPARC Oppositely Modulates its Biological Activity” (International Journal of Molecular Sciences, 2019)

B1: Nerve growth factor β (NGFβ) from mouse submaxillary glands (ligand, UniProt P01139 122-241, looked up)
chain: SSTHPVFHMGEFSVCDSVSVWVGDKTTATDIKGKEVTVLAEVNINNSVFRQYFFETKCRASNPVESGCRGIDSKHWNSYCTTTHTFVKALTTDEKQAAWRFIRIDTACVCVLSRKATRRG
notes: beta-nerve growth factor, mouse, the beta chain from submaxillary glands; The same protein was also tested after boiling (denatured), as a control; source: from mouse submaxillary glands; bought: Alomone Labs
B2: Recombinant human platelet-derived growth factor-BB (PDGF-BB) (ligand, UniProt P01127 82-190, looked up)
chain: SLGSLTIAEPAMIAECKTRTEVFEISRRLIDRTNANFLVWPPCVEVQRCSGCCNNRNVQCRPTQVQLRPVQVRKIEIVRKKPIFKKATVTLEDHLACKCETVAAARPVT
notes: PDGF B chain, human, recombinant; The two copies follow from the printed name BB; source: bought: Wako Pure Chemical

What was measured:
[1] = target: Secreted protein, acidic and rich in cysteine (SPARC) (UniProt P09486); experiment: SPR; BIAcore X; SPARC immobilised on CM5 chip (3574 RU); growth factors as analytes in HBS-EP (10 mM HEPES, 150 mM NaCl, 0.005% Surfactant P20, pH 7.4), 37 °C, 20 µL/min, 105 s association, 120 s dissociation
Secreted protein, acidic and rich in cysteine (SPARC), sequence (P09486 18-303): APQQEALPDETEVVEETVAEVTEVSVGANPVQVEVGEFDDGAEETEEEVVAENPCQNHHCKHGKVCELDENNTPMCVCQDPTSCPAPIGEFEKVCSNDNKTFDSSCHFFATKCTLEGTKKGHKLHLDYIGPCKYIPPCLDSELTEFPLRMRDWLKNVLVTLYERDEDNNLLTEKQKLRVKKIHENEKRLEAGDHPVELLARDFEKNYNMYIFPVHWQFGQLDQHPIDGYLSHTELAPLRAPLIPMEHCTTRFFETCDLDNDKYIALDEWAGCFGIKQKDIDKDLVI

[2] = target: T1, Recombinant murine full-length adiponectin (murine, UniProt Q60994 18-247); experiment: SPR; BIAcore X; full length adiponectin immobilised on CM5 chip (2025 RU); growth factors as analytes in HBS-EP pH 7.4, 37 °C, 20 µL/min, 105 s association, 120 s dissociation; details: both partners purified
T1 construct: also called fADPN; source: bought: Biovender Laboratory Medicine, Inc
T1 sequence (looked up): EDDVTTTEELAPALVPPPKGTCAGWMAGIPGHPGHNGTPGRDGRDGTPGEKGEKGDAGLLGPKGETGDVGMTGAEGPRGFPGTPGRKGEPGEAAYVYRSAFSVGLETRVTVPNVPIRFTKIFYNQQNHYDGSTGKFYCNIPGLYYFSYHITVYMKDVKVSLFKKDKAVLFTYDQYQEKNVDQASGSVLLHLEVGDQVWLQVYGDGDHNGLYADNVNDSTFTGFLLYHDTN

[3] = target: Recombinant murine globular adiponectin (murine); experiment: SPR; BIAcore X; globular adiponectin immobilised on CM5 chip (12707 RU); growth factors as analytes in HBS-EP pH 7.4, 37 °C, 20 µL/min, 105 s association, 120 s dissociation

Molecule	Kd [1]	koff [1]	kon [1]	Kd [2]	koff [2]	kon [2]	Kd [3]	koff [3]	kon [3]
Recombinant human vascular endothelial growth factor VEGF-165 (ligand)	54.4 nM	0.00413 s⁻¹	75800 M⁻¹ s⁻¹	–	–	–	–	–	–
Recombinant human basic fibroblast growth factor (FGF2) (from UniProt P09038 143-288) (ligand)	14400 nM	0.00195 s⁻¹	135 M⁻¹ s⁻¹	–	–	–	–	–	–
Recombinant human transforming growth factor β1 (TGFβ1) (from UniProt P01137 279-390) (ligand)	24300 nM	0.0192 s⁻¹	790 M⁻¹ s⁻¹	–	–	–	–	–	–
B1	59.4 nM	0.011 s⁻¹	186000 M⁻¹ s⁻¹	103 nM	0.00597 s⁻¹	57600 M⁻¹ s⁻¹	1260 nM	0.0145 s⁻¹	11500 M⁻¹ s⁻¹
B2	24.3 nM	0.000903 s⁻¹	37100 M⁻¹ s⁻¹	24.5 nM	2.82e-05 s⁻¹	1150 M⁻¹ s⁻¹	70.4 nM	0.00738 s⁻¹	105000 M⁻¹ s⁻¹
